This note sets out measurements from the supplement of paper PMC12338614.

± gives the uncertainty stated by the source.

Sequences and labels used below:
B1: library; numbered along this chain (parent)
chain: MEVVDPQQLGMFTEGELMSVGMDTFIHRIDSTEVIYQPRRKRAKLIGKYLMGDLLGEGSYGKVKEVLDSETLCRRAVKILKKKKLRRIPNGEANVKKEIQLLRRLRHKNVIQLVDVLYNEEKQKMYMVMEYCVCGMQEMLDSVPEKRFPVCQAHGYFCQLIDGLEYLHSQGIVHKDIKPGNLLLTTGGTLKISDLGVAEALHPFAADDTCRTSQGSPAFQPPEIANGLDTFSGFKVDIWSAGVTLYNITTGLYPFEGDNIYKLFENIGKGSYAIPGDCGPPLSDLLKGMLEYEPAKRFSIRQIRQHSWFRKKHPPAEAPVPIPPSPDTKDRWRSMTVVPYLEDLHGADEDEDLFDIEDDIIYTQDFTVPGQVPEEEASHNGQRRGLPKAVCMNGTEAAQLSTKSRAEGRAPNPARKACSASSKIRRLSACKQQ

The variants in this series derive from B1. Put plainly: STK11 functional score (HeLa growth suppression), rescaled enrichment; synonymous median = 1, nonsense median = 0 (normalised score). Particulars: with HeLa; variant type: missense. Here is the method:
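Deep mutational scan (TileSeq/POPCode codon randomisation) of full-length codon-optimised STK11 cDNA integrated at a Bxb1 landing pad (AAVS1) in HeLa cells. Restoring functional STK11 suppresses HeLa proliferation. Variant frequencies were measured by NGS before and after about two weeks of growth. The error-corrected enrichment log-ratio was rescaled so that synonymous median = 1 and nonsense median = 0, scores above 1 were compressed, and codon-level and three biological replicate scores were combined; error is the bootstrapped standard error. Scale: synonymous median = 1, nonsense median = 0; below 0.5 = damaging.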
Consider MEVVDPQQLGMFTEGELMSVGMDTFIHRIDSTEVIYQPRRKRAKLIGKYLMGDNLGEGSYGKVKEVLDSETLCRRAVKILKKKKLRRIPNGEANVKKEIQLLRRLRHKNVIQLVDVLYNEEKQKMYMVMEYCVCGMQEMLDSVPEKRFPVCQAHGYFCQLIDGLEYLHSQGIVHKDIKPGNLLLTTGGTLKISDLGVAEALHPFAADDTCRTSQGSPAFQPPEIANGLDTFSGFKVDIWSAGVTLYNITTGLYPFEGDNIYKLFENIGKGSYAIPGDCGPPLSDLLKGMLEYEPAKRFSIRQIRQHSWFRKKHPPAEAPVPIPPSPDTKDRWRSMTVVPYLEDLHGADEDEDLFDIEDDIIYTQDFTVPGQVPEEEASHNGQRRGLPKAVCMNGTEAAQLSTKSRAEGRAPNPARKACSASSKIRRLSACKQQ [L54N], for which the STK11 functional score turned out to be 1.64 ± 0.18.

With MEVVDPQQLGMFTEGELMSVGMDTFIHRIDSTEVIYQPRRKRAKLIGKYLMGDPLGEGSYGKVKEVLDSETLCRRAVKILKKKKLRRIPNGEANVKKEIQLLRRLRHKNVIQLVDVLYNEEKQKMYMVMEYCVCGMQEMLDSVPEKRFPVCQAHGYFCQLIDGLEYLHSQGIVHKDIKPGNLLLTTGGTLKISDLGVAEALHPFAADDTCRTSQGSPAFQPPEIANGLDTFSGFKVDIWSAGVTLYNITTGLYPFEGDNIYKLFENIGKGSYAIPGDCGPPLSDLLKGMLEYEPAKRFSIRQIRQHSWFRKKHPPAEAPVPIPPSPDTKDRWRSMTVVPYLEDLHGADEDEDLFDIEDDIIYTQDFTVPGQVPEEEASHNGQRRGLPKAVCMNGTEAAQLSTKSRAEGRAPNPARKACSASSKIRRLSACKQQ [L54P], the STK11 functional score was 1.21 ± 0.18.

Consider MEVVDPQQLGMFTEGELMSVGMDTFIHRIDSTEVIYQPRRKRAKLIGKYLMGDMLGEGSYGKVKEVLDSETLCRRAVKILKKKKLRRIPNGEANVKKEIQLLRRLRHKNVIQLVDVLYNEEKQKMYMVMEYCVCGMQEMLDSVPEKRFPVCQAHGYFCQLIDGLEYLHSQGIVHKDIKPGNLLLTTGGTLKISDLGVAEALHPFAADDTCRTSQGSPAFQPPEIANGLDTFSGFKVDIWSAGVTLYNITTGLYPFEGDNIYKLFENIGKGSYAIPGDCGPPLSDLLKGMLEYEPAKRFSIRQIRQHSWFRKKHPPAEAPVPIPPSPDTKDRWRSMTVVPYLEDLHGADEDEDLFDIEDDIIYTQDFTVPGQVPEEEASHNGQRRGLPKAVCMNGTEAAQLSTKSRAEGRAPNPARKACSASSKIRRLSACKQQ [L54M], for which the STK11 functional score was 1.1 ± 0.19.

In the case of MEVVDPQQLGMFTEGELMSVGMDTFIHRIDSTEVIYQPRRKRAKLIGKYLMGDWLGEGSYGKVKEVLDSETLCRRAVKILKKKKLRRIPNGEANVKKEIQLLRRLRHKNVIQLVDVLYNEEKQKMYMVMEYCVCGMQEMLDSVPEKRFPVCQAHGYFCQLIDGLEYLHSQGIVHKDIKPGNLLLTTGGTLKISDLGVAEALHPFAADDTCRTSQGSPAFQPPEIANGLDTFSGFKVDIWSAGVTLYNITTGLYPFEGDNIYKLFENIGKGSYAIPGDCGPPLSDLLKGMLEYEPAKRFSIRQIRQHSWFRKKHPPAEAPVPIPPSPDTKDRWRSMTVVPYLEDLHGADEDEDLFDIEDDIIYTQDFTVPGQVPEEEASHNGQRRGLPKAVCMNGTEAAQLSTKSRAEGRAPNPARKACSASSKIRRLSACKQQ [L54W], the STK11 functional score was 0.575 ± 0.083.

For the variant MEVVDPQQLGMFTEGELMSVGMDTFIHRIDSTEVIYQPRRKRAKLIGKYLMGDSLGEGSYGKVKEVLDSETLCRRAVKILKKKKLRRIPNGEANVKKEIQLLRRLRHKNVIQLVDVLYNEEKQKMYMVMEYCVCGMQEMLDSVPEKRFPVCQAHGYFCQLIDGLEYLHSQGIVHKDIKPGNLLLTTGGTLKISDLGVAEALHPFAADDTCRTSQGSPAFQPPEIANGLDTFSGFKVDIWSAGVTLYNITTGLYPFEGDNIYKLFENIGKGSYAIPGDCGPPLSDLLKGMLEYEPAKRFSIRQIRQHSWFRKKHPPAEAPVPIPPSPDTKDRWRSMTVVPYLEDLHGADEDEDLFDIEDDIIYTQDFTVPGQVPEEEASHNGQRRGLPKAVCMNGTEAAQLSTKSRAEGRAPNPARKACSASSKIRRLSACKQQ [L54S], the STK11 functional score was 1.2 ± 0.21.

As to MEVVDPQQLGMFTEGELMSVGMDTFIHRIDSTEVIYQPRRKRAKLIGKYLMGDVLGEGSYGKVKEVLDSETLCRRAVKILKKKKLRRIPNGEANVKKEIQLLRRLRHKNVIQLVDVLYNEEKQKMYMVMEYCVCGMQEMLDSVPEKRFPVCQAHGYFCQLIDGLEYLHSQGIVHKDIKPGNLLLTTGGTLKISDLGVAEALHPFAADDTCRTSQGSPAFQPPEIANGLDTFSGFKVDIWSAGVTLYNITTGLYPFEGDNIYKLFENIGKGSYAIPGDCGPPLSDLLKGMLEYEPAKRFSIRQIRQHSWFRKKHPPAEAPVPIPPSPDTKDRWRSMTVVPYLEDLHGADEDEDLFDIEDDIIYTQDFTVPGQVPEEEASHNGQRRGLPKAVCMNGTEAAQLSTKSRAEGRAPNPARKACSASSKIRRLSACKQQ [L54V], the STK11 functional score was 0.645 ± 0.14.

For MEVVDPQQLGMFTEGELMSVGMDTFIHRIDSTEVIYQPRRKRAKLIGKYLMGDTLGEGSYGKVKEVLDSETLCRRAVKILKKKKLRRIPNGEANVKKEIQLLRRLRHKNVIQLVDVLYNEEKQKMYMVMEYCVCGMQEMLDSVPEKRFPVCQAHGYFCQLIDGLEYLHSQGIVHKDIKPGNLLLTTGGTLKISDLGVAEALHPFAADDTCRTSQGSPAFQPPEIANGLDTFSGFKVDIWSAGVTLYNITTGLYPFEGDNIYKLFENIGKGSYAIPGDCGPPLSDLLKGMLEYEPAKRFSIRQIRQHSWFRKKHPPAEAPVPIPPSPDTKDRWRSMTVVPYLEDLHGADEDEDLFDIEDDIIYTQDFTVPGQVPEEEASHNGQRRGLPKAVCMNGTEAAQLSTKSRAEGRAPNPARKACSASSKIRRLSACKQQ [L54T], the STK11 functional score came to 1.47 ± 0.23.

MEVVDPQQLGMFTEGELMSVGMDTFIHRIDSTEVIYQPRRKRAKLIGKYLMGDYLGEGSYGKVKEVLDSETLCRRAVKILKKKKLRRIPNGEANVKKEIQLLRRLRHKNVIQLVDVLYNEEKQKMYMVMEYCVCGMQEMLDSVPEKRFPVCQAHGYFCQLIDGLEYLHSQGIVHKDIKPGNLLLTTGGTLKISDLGVAEALHPFAADDTCRTSQGSPAFQPPEIANGLDTFSGFKVDIWSAGVTLYNITTGLYPFEGDNIYKLFENIGKGSYAIPGDCGPPLSDLLKGMLEYEPAKRFSIRQIRQHSWFRKKHPPAEAPVPIPPSPDTKDRWRSMTVVPYLEDLHGADEDEDLFDIEDDIIYTQDFTVPGQVPEEEASHNGQRRGLPKAVCMNGTEAAQLSTKSRAEGRAPNPARKACSASSKIRRLSACKQQ [L54Y]: the STK11 functional score was found to be 1.47 ± 0.19.

Regarding MEVVDPQQLGMFTEGELMSVGMDTFIHRIDSTEVIYQPRRKRAKLIGKYLMGDRLGEGSYGKVKEVLDSETLCRRAVKILKKKKLRRIPNGEANVKKEIQLLRRLRHKNVIQLVDVLYNEEKQKMYMVMEYCVCGMQEMLDSVPEKRFPVCQAHGYFCQLIDGLEYLHSQGIVHKDIKPGNLLLTTGGTLKISDLGVAEALHPFAADDTCRTSQGSPAFQPPEIANGLDTFSGFKVDIWSAGVTLYNITTGLYPFEGDNIYKLFENIGKGSYAIPGDCGPPLSDLLKGMLEYEPAKRFSIRQIRQHSWFRKKHPPAEAPVPIPPSPDTKDRWRSMTVVPYLEDLHGADEDEDLFDIEDDIIYTQDFTVPGQVPEEEASHNGQRRGLPKAVCMNGTEAAQLSTKSRAEGRAPNPARKACSASSKIRRLSACKQQ [L54R], the STK11 functional score stood at 0.812 ± 0.087.

For MEVVDPQQLGMFTEGELMSVGMDTFIHRIDSTEVIYQPRRKRAKLIGKYLMGDLCGEGSYGKVKEVLDSETLCRRAVKILKKKKLRRIPNGEANVKKEIQLLRRLRHKNVIQLVDVLYNEEKQKMYMVMEYCVCGMQEMLDSVPEKRFPVCQAHGYFCQLIDGLEYLHSQGIVHKDIKPGNLLLTTGGTLKISDLGVAEALHPFAADDTCRTSQGSPAFQPPEIANGLDTFSGFKVDIWSAGVTLYNITTGLYPFEGDNIYKLFENIGKGSYAIPGDCGPPLSDLLKGMLEYEPAKRFSIRQIRQHSWFRKKHPPAEAPVPIPPSPDTKDRWRSMTVVPYLEDLHGADEDEDLFDIEDDIIYTQDFTVPGQVPEEEASHNGQRRGLPKAVCMNGTEAAQLSTKSRAEGRAPNPARKACSASSKIRRLSACKQQ [L55C], the STK11 functional score is 1.43 ± 0.52.

As to MEVVDPQQLGMFTEGELMSVGMDTFIHRIDSTEVIYQPRRKRAKLIGKYLMGDLGGEGSYGKVKEVLDSETLCRRAVKILKKKKLRRIPNGEANVKKEIQLLRRLRHKNVIQLVDVLYNEEKQKMYMVMEYCVCGMQEMLDSVPEKRFPVCQAHGYFCQLIDGLEYLHSQGIVHKDIKPGNLLLTTGGTLKISDLGVAEALHPFAADDTCRTSQGSPAFQPPEIANGLDTFSGFKVDIWSAGVTLYNITTGLYPFEGDNIYKLFENIGKGSYAIPGDCGPPLSDLLKGMLEYEPAKRFSIRQIRQHSWFRKKHPPAEAPVPIPPSPDTKDRWRSMTVVPYLEDLHGADEDEDLFDIEDDIIYTQDFTVPGQVPEEEASHNGQRRGLPKAVCMNGTEAAQLSTKSRAEGRAPNPARKACSASSKIRRLSACKQQ [L55G], the STK11 functional score is 1.53 ± 0.23.

Take MEVVDPQQLGMFTEGELMSVGMDTFIHRIDSTEVIYQPRRKRAKLIGKYLMGDLDGEGSYGKVKEVLDSETLCRRAVKILKKKKLRRIPNGEANVKKEIQLLRRLRHKNVIQLVDVLYNEEKQKMYMVMEYCVCGMQEMLDSVPEKRFPVCQAHGYFCQLIDGLEYLHSQGIVHKDIKPGNLLLTTGGTLKISDLGVAEALHPFAADDTCRTSQGSPAFQPPEIANGLDTFSGFKVDIWSAGVTLYNITTGLYPFEGDNIYKLFENIGKGSYAIPGDCGPPLSDLLKGMLEYEPAKRFSIRQIRQHSWFRKKHPPAEAPVPIPPSPDTKDRWRSMTVVPYLEDLHGADEDEDLFDIEDDIIYTQDFTVPGQVPEEEASHNGQRRGLPKAVCMNGTEAAQLSTKSRAEGRAPNPARKACSASSKIRRLSACKQQ [L55D]: the STK11 functional score worked out at 1.31 ± 0.68.

Regarding MEVVDPQQLGMFTEGELMSVGMDTFIHRIDSTEVIYQPRRKRAKLIGKYLMGDLFGEGSYGKVKEVLDSETLCRRAVKILKKKKLRRIPNGEANVKKEIQLLRRLRHKNVIQLVDVLYNEEKQKMYMVMEYCVCGMQEMLDSVPEKRFPVCQAHGYFCQLIDGLEYLHSQGIVHKDIKPGNLLLTTGGTLKISDLGVAEALHPFAADDTCRTSQGSPAFQPPEIANGLDTFSGFKVDIWSAGVTLYNITTGLYPFEGDNIYKLFENIGKGSYAIPGDCGPPLSDLLKGMLEYEPAKRFSIRQIRQHSWFRKKHPPAEAPVPIPPSPDTKDRWRSMTVVPYLEDLHGADEDEDLFDIEDDIIYTQDFTVPGQVPEEEASHNGQRRGLPKAVCMNGTEAAQLSTKSRAEGRAPNPARKACSASSKIRRLSACKQQ [L55F], the STK11 functional score is -0.181 ± 0.15.

Take MEVVDPQQLGMFTEGELMSVGMDTFIHRIDSTEVIYQPRRKRAKLIGKYLMGDLAGEGSYGKVKEVLDSETLCRRAVKILKKKKLRRIPNGEANVKKEIQLLRRLRHKNVIQLVDVLYNEEKQKMYMVMEYCVCGMQEMLDSVPEKRFPVCQAHGYFCQLIDGLEYLHSQGIVHKDIKPGNLLLTTGGTLKISDLGVAEALHPFAADDTCRTSQGSPAFQPPEIANGLDTFSGFKVDIWSAGVTLYNITTGLYPFEGDNIYKLFENIGKGSYAIPGDCGPPLSDLLKGMLEYEPAKRFSIRQIRQHSWFRKKHPPAEAPVPIPPSPDTKDRWRSMTVVPYLEDLHGADEDEDLFDIEDDIIYTQDFTVPGQVPEEEASHNGQRRGLPKAVCMNGTEAAQLSTKSRAEGRAPNPARKACSASSKIRRLSACKQQ [L55A]: the STK11 functional score stood at 0.122 ± 0.29.
